# Source: US20100138945A1 (FEMTA PHARMACEUTICALS, published 2010)
# Substitutions are numbered along the chain they refer to.
# B1: BA399_CPS_03 (antibody, V domains shown)
# VH: QVQLVQSGAEVKKPGASVKVSCKASHFTFSSFAMSWIRQSPSRGLEWLGEISSGGSYHYYPDTVTGRFTISRDNAKNSLYLQMNSLRAEDTAVYYCARGQWGYYALDYWGQG
# VL: AIQLTQSPSSLSASVGDRVTITCSASSSVSYMYWYQQKPGQAPRLLIYDTLNLASGIPPRFSGSGYGTDFTLTINNIESEDAAYYFCQQWSGYPYTFGQG
# notes: also called Clone BA399-03; BA399_03
# B2: BA399_CPS_04 (antibody, V domains shown)
# VH: B1 VH with H26G, A33S, H58T
# VL: B1 VL with L51S, Q89D
# notes: also called Clone BA399-04; BA399_04
# B3: BA399_CPS_01 (antibody, V domains shown)
# VH: B1 VH with H26G, H58T
# VL: B1 VL with L51S, Q89D
# notes: also called Clone BA399-01; BA399_01
# B4: BA399_CPS_06 (antibody, V domains shown)
# VH: B1 VH with H26G, A33S
# VL: B1 VL with S24Y, Q89D
# notes: also called Clone BA399-06; BA399_06
# B5: Anti-IL-6 Ab BA802 (antibody, V domains shown)
# VH: B1 VH with H26G, H58T, Q100L
# VL: EIVLTQSPDFQSVTPKEKVTITCSASSSVSYMYWYLQKPGQSPQLLIYDTSNLASGVPSRFSGSGSGTDFTLTISSLQPEDFATYYCQQWSGYPYTFGQG
# notes: Humanized monoclonal antibody
# B6: Anti-IL-6 Ab BA808 (antibody, V domains shown)
# VH: B1 VH with H26G, H58T, Q100L
# VL: EIVLTQSPATLSVSPGERATLSCSASSSVSYMYWYLQKPGQSPQLLIYDTSNLASGIPPRFSGSGYGTDFTLTINNIESEDAAYYFCQQWSGYPYTFGQG
# notes: Humanized monoclonal antibody
# B7: Anti-IL-6 Ab BA840 (antibody, V domains shown)
# VH: B1 VH with H26G, S40P, S42G, R43K, L48I, H58T, Q100L
# VL: B6 VL with A9D, T10F, L11Q, S14T, G16K, R18K, A19V, L21I, S22T
# notes: Humanized monoclonal antibody
# B8: Anti-IL-6 Ab BA939 (antibody, V domains shown)
# VH: B1 VH with H26G, I37V, S40A, S42G, R43Q, L48M, H58T, Q100L
# VL: B1 VL with A1D, L4M, L51S
# notes: Humanized monoclonal antibody
# B9: Anti-IL-6 Ab BA848 (antibody, V domains shown)
# VH: B1 VH with Q1E, H26G, I37V, S40A, S42G, R43Q, L48M, H58T, Q100L
# VL: B1 VL with L51S
# notes: Humanized monoclonal antibody
# B10: Anti-IL-6 Ab BA890 (antibody, V domains shown)
# VH: B1 VH with H26G, S40P, S42G, R43K, L48I, H58T, Q100L
# VL: B1 VL with L51S
# notes: Humanized monoclonal antibody
# B11: Clone BA399-02 (antibody, V domains shown)
# VH: B1 VH with H26G, A33S, H58T, V64K
# VL: B1 VL with S24Y, L51S
# notes: also called BA399-2; BA399 clone #2
# B12: BA399_CPS_10 (antibody, V domains shown)
# VH: B1 VH with A33S
# VL: B1 VL with S24Y
# notes: also called Clone BA399-10; BA399_10
# B13: Clone BA399-05 (antibody, V domains shown)
# VH: B1 VH with H26G, H58T, V64K
# VL: B1 VL with S24Y, L51S, Q89D
# notes: also called BA399-5
# B14: Clone BA399-09 (antibody, V domains shown)
# VH: B1 VH with H26G, A33S
# VL: B1 VL with S24Y
# notes: also called BA399-9; BA399 clone #9
# Target: T1, human IL-6 (Interleukin-6) (human, UniProt P05231 30-212)
# T1 construct: also called 001 IL-6 antigen
# Assay: specific activity: affinity ELISA on IL-6 divided by quantitation ELISA, normalized to BA399 = 1
# Protocol: 200 μl washing solution (0.05% Tween-20 in PBS) was added and shaken at 200 RPM for 5 min at room temperature. The plates were emptied and residual liquid tapped out on paper towels. 200 μl blocking solution (2% Carnation milk in PBS) was added and shaken at 200 RPM for one hour at room temperature. Plates were emptied and residual liquid tapped out on paper towels. 100 μl of diluted samples for ELISA was used. The samples were shaken at 200 RPM for one hour at room temperature; plates emptied and residual liquid tapped out on paper towels. 200 μl washing solution (0.05% Tween-20 in PBS) was added, shaken at 200 RPM for 5 min at room temperature; plates emptied and residual liquid tapped out on paper towels. This process was repeated three times. 100 μl of 1:2500 dilution of anti-human IgG conjugated with HRP diluted in block solution (2% Carnation milk in PBS) was added for 001 samples. 100 μl of 1:2500 dilution of anti-rabbit IgG conjugated with HRP diluted in block solution (2% Carnation milk in PBS) was added for control antibody. The contents were shaken at 200 RPM for one hour at room temperature, plates emptied and residue liquid tapped out on paper towels. 200 μl washing solution (0.05% Tween-20 in PBS) was added, shaken at 200 RPM for 5 min at room temperature; plates emptied and residual liquid tapped out on paper towels. This process was repeated three times. 100 μl TMB substrate solution was added, and incubated at room temperature. The reaction was stopped with 1 N HCl, and the plate read at 450 nm.
# This ELISA was used for determining the expression level of antibodies in cell culture supernatant. […] Covered with plate sealer and incubated at 4° C. overnight. Emptied plate and tapped out residual liquid on paper towels. Added 200 μl washing solution (0.05% Tween-20 in PBS). Shaken at 200 RPM for 5 min at room temperature. Emptied plate and tapped out residual liquid on paper towels. Added 200 μl blocking solution (2% Carnation milk in PBS). Shaken at 200 RPM for one hour at room temperature. Emptied plate and tapped out residual liquid on paper towels. Used 100 μl of diluted sample for ELISA. 20 ng/ml of human IgG and 1:2 dilution thereafter was used for standards.
row,Molecule,binding result
1,B1,binds
2,B2,binds
3,B3,binds
4,B4,binds

# Target: T1, human IL-6 (Interleukin-6)
# Assay: Sapidyne KinExA kinetic exclusion assay on IL-6; Kd Range (95% Confidence Interval) printed: 5.66pM to 3.28pM
# Target sequence in this assay (P05231 30-212 limits assumed): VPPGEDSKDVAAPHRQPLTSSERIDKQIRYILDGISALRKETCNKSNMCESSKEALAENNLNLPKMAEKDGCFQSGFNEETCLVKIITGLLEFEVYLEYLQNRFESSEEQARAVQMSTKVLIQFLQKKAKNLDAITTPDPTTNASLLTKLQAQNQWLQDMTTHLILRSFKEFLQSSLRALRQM
row,Molecule,Kd
1,Anti-IL-6 Mab BA003 (CNTO136) (antibody),4.37 pM

# Target: T1, human IL-6 (Interleukin-6)
# Assay: Biacore (SPR), antibody captured on anti-human Fc, IL-6 as analyte
Molecule,Kd,koff,kon
B5,39.6 pM,5.88e-05 s⁻¹,1.48e+06 M⁻¹ s⁻¹
B6,50.5 pM,6.59e-05 s⁻¹,1.31e+06 M⁻¹ s⁻¹
B7,236 pM,0.000237 s⁻¹,1.01e+06 M⁻¹ s⁻¹
B8,40 pM,5.76e-05 s⁻¹,1.44e+06 M⁻¹ s⁻¹
B9,127 pM,0.000158 s⁻¹,1.25e+06 M⁻¹ s⁻¹
B10,86.5 pM,6.44e-05 s⁻¹,745000 M⁻¹ s⁻¹

# Target: T1, human IL-6 (Interleukin-6)
# Assay: as above
# Remark: another data set of the same source
Molecule,Ka,Kd,koff,kon
B11,8.14e+13 M⁻¹,0.0123 pM,9.11e-09 s⁻¹,742000 M⁻¹ s⁻¹
B12,3.52e+12 M⁻¹,0.284 pM,1.82e-07 s⁻¹,643000 M⁻¹ s⁻¹
B13,3.52e+10 M⁻¹,28.4 pM,2.86e-05 s⁻¹,1.01e+06 M⁻¹ s⁻¹
B14,1.28e+13 M⁻¹,0.0783 pM,5.07e-08 s⁻¹,648000 M⁻¹ s⁻¹
